This experiment has as its system NKTs. Put plainly: CD62L expression by flow cytometry on day 12 after antigenic stimulation of NKTs treated with Wnt activators. The format is cell-based, human. Particulars: for development of CD62L+ NKTs: day 12. As to the method: PBMC of healthy donors (at least 18 years old) are isolated by gradient centrifugation from buffy coats purchased from Gulf Coast Regional Blood Center. NKTs are purified by anti-iNKT microbeads (Miltenyi Biotec). The negative PBMC fraction is irradiated (40 Gy) and aliquoted. NKTs are stimulated with an aliquot of autologous PBMCs pulsed with 100 ng/niL αGalCer (Kyowa Hakko Kirin). Recombinant IL-2 (200 U/ml, National Cancer Institute Frederick) is added every other day in complete RPMI (HyClone RPMI 1640, 10% heat inactivated fetal bovine serum and 2 mM Glutamax). NKTs are expanded for 10 days and then re-stimulated with autologous PBMC (irradiated with 40 Gy) or Ramos cells as aAPC (irradiated with 100 Gy) when indicated. On day 3 after re-stimulation, 24 well, non-tissue culture plates are coated with retronectin (Takara Bio) and after washing inoculated with 1 ml of retroviral supernatant containing the constructs shown in FIG. 27 and described above and spun for 60 min at 4600 G. The viral supernatant is then removed and stimulated NKTs are added to the wells in complete media and 200 U/ml rhIL-2. Cells are removed from the plate after 48 h, washed, re-suspended at the concentration 10^6 cell/ml in complete RPMI with 200 U/ml IL-2 and plated for continued expansion. NKT-cell number is determined by Trypan Blue (Life technologies) counting. When indicated, NKTs or CAR-NKTs are labeled with CD62L-PE mAb (GREG-56, BD Biosciences) and anti-PE microbeads (Miltenyi) followed by magnetic sorting into CD62L+ and CD62L− subsets according to the manufacturer's instructions. The phenotype of the sorted cells was determined by FACS.
NKTs are stimulated as described in Example 2 but treated with three separate doses of PBS or 500 ng/mL Wnt3a given on day 0, 3 and 7 after antigenic stimulation. CD62L expression is examined by flow cytometry on day 12 after antigenic stimulation. […]
Following primary stimulation, NKTs are cultured with IL-2 or IL-2/IL-21 for 12 days. […] CD62L expression is analyzed by flow cytometry at the end of expansion.
For orientation: Flow cytometry measures light scatter and fluorescence of single cells or particles in a stream.

As to `Nc1cccc(-c2cc3c(Oc4cccc(O)c4)ncnc3[nH]2)c1` [TWS119, reference compound], the “development of CD62L+ NKTs” value (one dose 5 μM on day 7 after antigenic stimulation vs DMSO, n=6 donors) is given as “promotes development of CD62L+ NKTs”.

B1: Wnt3a: recombinant Wnt3a, Wnt ligand (protein, UniProt P56704 19-352, looked up)
Protein Wnt-3a: SYPIWWSLAVGPQYSSLGSQPILCASIPGLVPKQLRFCRNYVEIMPSVAEGIKIGIQECQHQFRGRRWNCTTVHDSLAIFGPVLDKATRESAFVHAIASAGVAFAVTRSCAEGTAAICGCSSRHQGSPGKGWKWGGCSEDIEFGGMVSREFADARENRPDARSAMNRHNNEAGRQAIASHMHLKCKCHGLSGSCEVKTCWWSQPDFRAIGDFLKDKYDSASEMVVEKHRESRGWVETLRPRYTYFKVPTERDLVYYEASPNFCEPNPETGSFGTRDRTCNVSSHGIDGCDLLCCGRGHNARAERRREKCRCVFHWCCYVSCQECTRVYDVHTCK
As for B1, under “500 ng/mL on day 0, 3 and 7 vs PBS, n=3 donors”, the “development of CD62L+ NKTs” value is recorded as “promotes development of CD62L+ NKTs”. Moreover, where the note is “500 ng/ml on days 0, 1, 2, culture with IL-2 or IL-2/IL-21 for 12 days”, the CD62L frequency entry is recorded as “works additively with IL-21 to increase CD62L frequency”.
